Measured values reported in publication PMC12231599, “Elucidation of multiple high-resolution states of human MutSβ by cryo-EM reveals interplay between ATP/ADP binding and heteroduplex DNA recognition”.

Columns and labels:
[1] = target: T1, MSH2 (MutSβ subunit);MSH3 (MutSβ subunit) (Homo sapiens;Homo sapiens, UniProt P43246;P20585 1-934;1-1137, |); assay: FRET (DNA bending); no ATP; 100 nM protein; SPR: 25 mM HEPES pH 7.5, 150 mM KCl, 5 mM MgCl2, 1 mM DTT, 0.05% Tween, 0.05% BSA, 25 C; FRET: 50 mM HEPES pH 7.0, 200 mM NaCl, 1 mM MgCl2, 1 mM DTT, 0.05% Tween-20, RT; details: protein: recombinant;recombinant, tags: none;none, copies: 1;1, label: Cy5 strand 1, Cy3 strand 2, 5' digoxigenin, blunt
[2] = target: T1, MSH2 (MutSβ subunit);MSH3 (MutSβ …); assay: SPR (steady state); no ATP; 5 mM Mg2+; SPR: 25 mM HEPES pH 7.5, 150 mM KCl, 5 mM MgCl2, 1 mM DTT, 0.05% Tween, 0.05% BSA, 25 C; FRET: 50 mM HEPES pH 7.0, 200 mM NaCl, 1 mM MgCl2, 1 mM DTT, 0.05% Tween-20, RT; details: protein: recombinant;recombinant; tags: none;none; copies: 1;1; label: 5' biotin; blunt
[3] = target: T1, MSH2 (MutSβ subunit);MSH3 (MutSβ …); assay: SPR (kinetic, preferred by authors); 5 mM Mg2+; no ATP; SPR: 25 mM HEPES pH 7.5, 150 mM KCl, 5 mM MgCl2, 1 mM DTT, 0.05% Tween, 0.05% BSA, 25 C; FRET: 50 mM HEPES pH 7.0, 200 mM NaCl, 1 mM MgCl2, 1 mM DTT, 0.05% Tween-20, RT; details: protein: recombinant;recombinant; tags: none;none; copies: 1;1; label: 5' biotin; blunt, (CAG)2 6-nt extrahelical loop in strand 1
[4] = target: T1, MSH2 (MutSβ subunit);MSH3 (MutSβ …); assay: SPR (steady state); 5 mM Mg2+; no ATP; SPR: 25 mM HEPES pH 7.5, 150 mM KCl, 5 mM MgCl2, 1 mM DTT, 0.05% Tween, 0.05% BSA, 25 C; FRET: 50 mM HEPES pH 7.0, 200 mM NaCl, 1 mM MgCl2, 1 mM DTT, 0.05% Tween-20, RT; details: protein: recombinant;recombinant; tags: none;none; copies: 1;1; label: 5' biotin; blunt, (CAG)2 6-nt extrahelical loop in strand 1

B1: 70 bp (CAG)1 loop DNA (FRET) (dsDNA)
DNA 1: CACACGTTCCGAGATATCCTAGCAAGTGATCAGCGTCTATGTAGCTCAAGAGTTCGACTCAGCCTACACCGAG
DNA 2: CTCGGTGTAGGCTGAGTCGAACTCTTGAGCTACATAGACGATCACTTGCTAGGATATCTCGGAACGTGTG
modifications: internal dye-dT
[1]; 3-nt CAG loop in strand 1
  binding result: binds

B2: 70 bp (CAG)4 loop DNA (FRET) (dsDNA)
DNA 1: CACACGTTCCGAGATATCCTAGCAAGTGATCAGCAGCAGCAGCGTCTATGTAGCTCAAGAGTTCGACTCAGCCTACACCGAG
DNA 2: B1 DNA 2
modifications: internal dye-dT
[1]; 12-nt (CAG)4 loop in strand 1
  binding result: binds

B3: 70 bp (CAG)2 loop DNA (FRET) (dsDNA)
DNA 1: CACACGTTCCGAGATATCCTAGCAAGTGATCAGCAGCGTCTATGTAGCTCAAGAGTTCGACTCAGCCTACACCGAG
DNA 2: B1 DNA 2
modifications: internal dye-dT
[1]; 6-nt (CAG)2 loop in strand 1
  binding result: binds

B4: 61 bp homoduplex, biotinylated (SPR) (dsDNA)
DNA 1: CTGAAGCTTAGCTTAGGATCATCGAGGATCAGCTCGGTGCAATTCAGCGGTACCCAATTC
DNA 2: GAATTGGGTACCGCTGAATTGCACCGAGCTGATCCTCGATGATCCTAAGCTAAGCTTCAG
[2]
  Kd: 3.32 nM

B5: 61 bp (CAG)2 loop DNA, biotinylated (SPR) (dsDNA)
DNA 1: CTGAAGCTTAGCTTAGGATCATCGAGGATCCAGCAGAGCTCGGTGCAATTCAGCGGTACCCAATTC
DNA 2: B4 DNA 2
[3]
  Kd: 0.0672 nM
[4]
  Kd: 0.265 nM
